Source: patent publication US20250011430A1

Target: human B7H3 ECD-His (human) (UniProt Q5ZPR3)
Experiment: ForteBio BLI, antibody on AHQ sensor, 60 nM antigen, 1:1 model

## Enoblituzumab (antibody)
  Kd: 0.773 nM
